Laboratory results reported in PMC4005694.

Tests used:
[1] = biological target: Methanothermobacter thermautotrophicus 70S ribosome (M. thermautotrophicus (endogenous in M. thermautotrophicus cells)) (UniProt O26110); experiment: MST; fluorescently labelled (DY-495) 70S, 50S or 30S kept constant, unlabelled aaRS or control protein titrated (mSerRS 2.5 nM-40.8 µM, ArgRS 5.6 nM-91.9 µM on 70S); 20 mM Tris-HCl pH 7.5, 150 mM NaCl, 6 mM MgCl2, 1 mM DTT, 0.05% Tween-20, 0.4 mg/ml BSA; hyperbolic fit
[2] = biological target: Methanothermobacter thermautotrophicus large ribosomal subunit (M. thermautotrophicus (endogenous in M. thermautotrophicus cells)) (UniProt O26110); experiment: as above
Methanothermobacter thermautotrophicus large ribosomal subunit (M. thermautotrophicus (endogenous in M. thermautotrophicus cells)), sequence (O26110 whole entry, looked up, tested part not stated): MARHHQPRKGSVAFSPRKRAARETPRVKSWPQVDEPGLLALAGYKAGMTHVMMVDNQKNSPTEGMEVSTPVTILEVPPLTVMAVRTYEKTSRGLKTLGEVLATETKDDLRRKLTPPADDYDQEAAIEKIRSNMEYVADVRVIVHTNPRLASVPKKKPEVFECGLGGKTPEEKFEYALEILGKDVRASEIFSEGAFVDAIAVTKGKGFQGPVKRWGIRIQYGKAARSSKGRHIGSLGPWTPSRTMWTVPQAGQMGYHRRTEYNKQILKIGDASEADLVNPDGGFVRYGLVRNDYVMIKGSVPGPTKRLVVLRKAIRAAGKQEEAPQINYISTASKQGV

Methanothermobacter thermautotrophicus 70S ribosome (M. thermautotrophicus (endogenous in M. thermautotrophicus cells)), sequence (O26110 whole entry, looked up): as the sequence (O26110 whole entry, looked up, tested part not stated) above

Kd [1] [nM] | Kd [2] [nM] | Binder
1250 | 1290 | Methanothermobacter thermautotrophicus methanogenic-type seryl-tRNA synthetase (enzyme) MKFKLKGIIKLSKEVPGIEDDLEKFFTEAESDILRRGVPEGQEHEAAHIKSWRLEGDTLHIEMESGRRVRAHDGLLRLKKPLGQLLGPKYRVGVRGISVTDYTMEMKAPGVSGIPSLAELPFVEDAAITDGTIMVRFQPLEESDLRKHVFDRVVKHARTLVESSDDLTVQVTRATPGEIIARSRSRDFFFEGDPTEEAMRLGWVKKFPGRGQWFYGPKITALHRALEEFFIERIVKPLGFVECLFPKLIPLDIMNKMRYLEGLPEGMYYCSAPSRDPETFEEFKNELIINREVPMDLLKRGIKDPGYVIAPAQCEPFYQFLSHEVVSAEDLPVKFFDRSGWTYRWEAGGSKGLDRVHEFQRVELVWLAEPGETEEIRDRTVELSHDAADELELEWYTEVGDDPFYLEGRKVEERGIEFPDVPKYEMRLSLPGREKGVAVVSANVHGTHFIEGFSIREARNLNIWTGCTGIGLSRWIYGFLAQKGFETGNWPDFIGERVEGVENPRIITWPRQD
4700 | – | Methanothermobacter thermautotrophicus arginyl-tRNA synthetase (enzyme) MFRYIEKEARDSITAALEKLGIKVPPEIKLEEPPNPQLGDLASTVSFELAGKLRRAPIEITADIMSVIETPEIFETIESKGPYINFFVDYGRFSSRLLESIQDDYGSHPPRDERVILEHTSANPNGPLHIGHIRNAIIGDSLARILRMAGYDVETQYYVNDMGRQIAMIVWGLLNLDGDLEDYPGDKMDHRVGKLYFEVNQRLKENPGIRDEVDELIRKYEAGENEELFRKVVEYCLSGMEETMKRLHVHHDRFVWEGQFVRDGTVDRVIESLRKTGYTGENDVLYLDLEEFGLEKELVLTRSDGTSLYSTRDIAYHLQKSEEGDVIIDVLGSDHKLAAEQVGIAVELLGGKRPEVIFYEFITLPEGSMSTRRGVFISVDELMDEAHSRALHEVKKRRDLPDDVADDIAESIGNGAIRYYIARLSPEKHIVFRWDDALSFERGCASIQYAHARACKLLEKASFTGEEDIEDGWKPEGDERELVRLLARFPVVVEESALARRVHPVAQYAQDLANTFNSFYRSTPVIGSDFEGARLRLVDSVRKTLRNALNLLGIHAPETM
